Source: PMC9482650, “Quantitative fragmentomics allow affinity mapping of interactomes” (Nature Communications, 2022)

Legend:
Test in all cases: holdup assay
Design in all cases: key: below the threshold = too weak to quantify, mostly under pKd 3.1 to 4
[1] = molecular target: T1, MPP2, Q14168
T1 sequence (Q14168 180-250, limits assumed, looked up): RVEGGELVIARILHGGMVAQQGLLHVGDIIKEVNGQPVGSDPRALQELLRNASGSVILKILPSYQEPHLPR

[2] = molecular target: ARHGEF12, Q9NZN5-2
[3] = molecular target: T2, ARHGAP21, Q5T5U3
T2 sequence (Q5T5U3 45-169, limits assumed, looked up): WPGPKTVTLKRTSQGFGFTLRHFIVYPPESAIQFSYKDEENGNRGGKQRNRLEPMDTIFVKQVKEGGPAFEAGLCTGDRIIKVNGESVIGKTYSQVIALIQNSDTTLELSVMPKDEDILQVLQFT

[4] = molecular target: Inadl_8, Q8NI35
[5] = molecular target: T3, TIAM2, Q8IVF5
T3 sequence (Q8IVF5 885-986, limits assumed, looked up): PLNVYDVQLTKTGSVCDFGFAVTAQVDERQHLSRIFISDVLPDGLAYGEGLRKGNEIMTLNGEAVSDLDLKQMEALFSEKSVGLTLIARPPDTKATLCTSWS

[6] = molecular target: NHERF4_1, Q86UT5-2
[7] = molecular target: Inadl_6, Q8NI35
[8] = molecular target: DLG1_1, Q12959
[9] = molecular target: DLG1_2, Q12959
[10] = molecular target: Inadl_2, Q8NI35
[11] = molecular target: T4, DFNB31_3, Q9P202
T4 sequence (Q9P202 811-907, limits assumed, looked up): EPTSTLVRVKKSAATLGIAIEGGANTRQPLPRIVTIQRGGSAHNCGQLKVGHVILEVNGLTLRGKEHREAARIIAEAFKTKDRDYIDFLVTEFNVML

[12] = molecular target: GIPC2, Q8TF65
[13] = molecular target: DLG2_2, Q15700
[14] = molecular target: T5, RHPN1, Q8TCX5
T5 sequence (Q8TCX5 508-602, limits assumed, looked up): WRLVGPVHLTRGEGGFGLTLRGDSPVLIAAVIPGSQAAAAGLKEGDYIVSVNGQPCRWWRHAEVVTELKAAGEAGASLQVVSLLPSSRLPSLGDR

[15] = molecular target: DLG5_1, Q8TDM6
[16] = molecular target: T6, RADIL, Q96JH8
T6 sequence (Q96JH8 971-1071, limits assumed, looked up): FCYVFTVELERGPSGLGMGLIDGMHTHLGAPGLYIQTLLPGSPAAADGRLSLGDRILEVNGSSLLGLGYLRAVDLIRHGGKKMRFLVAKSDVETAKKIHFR

[17] = molecular target: Inadl_10, Q8NI35
[18] = molecular target: T7, APBA2_2, Q99767
T7 sequence (Q99767 654-744, limits assumed, looked up): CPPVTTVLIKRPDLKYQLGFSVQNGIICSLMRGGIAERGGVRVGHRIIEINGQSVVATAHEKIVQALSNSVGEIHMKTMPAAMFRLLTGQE

[19] = molecular target: T8, LIN7B, Q9HAP6
T8 sequence (Q9HAP6 88-185, limits assumed, looked up): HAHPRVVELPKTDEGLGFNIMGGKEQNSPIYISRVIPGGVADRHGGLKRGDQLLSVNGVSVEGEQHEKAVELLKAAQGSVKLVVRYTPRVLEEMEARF

[20] = molecular target: PDLIM1, O00151
[21] = molecular target: GRID2IP_1, A4D2P6
[22] = molecular target: T9, NHERF3_3, Q5T2W1
T9 sequence (Q5T2W1 238-333, limits assumed, looked up): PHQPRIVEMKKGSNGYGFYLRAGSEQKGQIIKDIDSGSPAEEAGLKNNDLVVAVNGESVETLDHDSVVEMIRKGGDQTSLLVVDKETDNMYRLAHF

[23] = molecular target: MAGI2_2, Q86UL8
[24] = molecular target: GRASP, Q7Z6J2
[25] = molecular target: T10, NHERF3_1, Q5T2W1
T10 sequence (Q5T2W1 4-100, limits assumed, looked up): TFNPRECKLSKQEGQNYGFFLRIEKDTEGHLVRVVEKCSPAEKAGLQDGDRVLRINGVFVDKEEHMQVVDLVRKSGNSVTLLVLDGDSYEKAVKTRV

[26] = molecular target: PDZRN4_1, Q6ZMN7
[27] = molecular target: LDB3, O75112
[28] = plain residues with an end cap or a label only (N-terminal biotin on a linker: ttds)
[29] = plain residues with an end cap or a label only (N-terminal biotin on a linker: gsgsgs; C-terminal amide)

Sequence of Inadl_2, Q8NI35 (Q8NI35 238-335): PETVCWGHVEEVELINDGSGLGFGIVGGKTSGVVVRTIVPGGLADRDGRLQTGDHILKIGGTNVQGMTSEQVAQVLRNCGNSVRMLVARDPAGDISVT
Sequence of PDZRN4_1, Q6ZMN7 (Q6ZMN7 213-318): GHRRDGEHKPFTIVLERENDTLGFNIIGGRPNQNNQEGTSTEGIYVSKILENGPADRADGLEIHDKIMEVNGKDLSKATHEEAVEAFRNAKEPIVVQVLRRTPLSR
Sequence of GIPC2, Q8TF65 (Q8TF65 112-203): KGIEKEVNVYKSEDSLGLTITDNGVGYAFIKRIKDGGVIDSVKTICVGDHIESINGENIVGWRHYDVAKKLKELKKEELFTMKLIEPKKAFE
Sequence of ARHGEF12, Q9NZN5-2 (Q9NZN5 other isoform, or with tags, fused parts or gaps): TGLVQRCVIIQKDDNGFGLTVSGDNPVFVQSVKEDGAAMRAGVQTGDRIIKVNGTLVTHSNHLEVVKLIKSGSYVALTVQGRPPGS
Sequence of LDB3, O75112 (O75112 1-94): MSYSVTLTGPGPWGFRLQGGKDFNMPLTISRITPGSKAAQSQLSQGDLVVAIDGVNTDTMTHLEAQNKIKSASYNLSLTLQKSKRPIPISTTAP
Sequence of DLG5_1, Q8TDM6 (Q8TDM6 617-713): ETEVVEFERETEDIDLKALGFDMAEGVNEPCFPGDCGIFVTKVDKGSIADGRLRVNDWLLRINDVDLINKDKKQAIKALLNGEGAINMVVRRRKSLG
Sequence of DLG2_2, Q15700 (Q15700 189-283): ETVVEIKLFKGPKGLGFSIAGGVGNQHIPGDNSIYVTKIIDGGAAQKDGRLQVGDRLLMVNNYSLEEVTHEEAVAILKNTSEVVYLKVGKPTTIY
Sequence of GRASP, Q7Z6J2 (Q7Z6J2 96-193): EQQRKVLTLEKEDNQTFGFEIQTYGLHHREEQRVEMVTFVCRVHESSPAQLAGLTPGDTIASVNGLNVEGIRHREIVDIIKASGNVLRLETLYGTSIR
Sequence of MAGI2_2, Q86UL8 (Q86UL8 410-522): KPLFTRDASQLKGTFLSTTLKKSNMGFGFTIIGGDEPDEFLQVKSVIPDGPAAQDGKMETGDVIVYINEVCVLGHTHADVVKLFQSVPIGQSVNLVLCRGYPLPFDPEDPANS
Sequence of Inadl_8, Q8NI35 (Q8NI35 1425-1530): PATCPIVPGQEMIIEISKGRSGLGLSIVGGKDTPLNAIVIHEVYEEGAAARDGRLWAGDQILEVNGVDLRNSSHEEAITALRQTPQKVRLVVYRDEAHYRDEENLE
Sequence of PDLIM1, O00151 (O00151 1-87): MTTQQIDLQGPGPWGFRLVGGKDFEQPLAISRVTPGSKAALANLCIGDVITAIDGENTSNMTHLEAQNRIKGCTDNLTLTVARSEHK
Sequence of Inadl_6, Q8NI35 (Q8NI35 1058-1167): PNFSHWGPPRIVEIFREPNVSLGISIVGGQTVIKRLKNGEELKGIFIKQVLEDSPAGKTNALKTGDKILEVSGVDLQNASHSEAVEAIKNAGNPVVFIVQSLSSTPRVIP
Sequence of NHERF4_1, Q86UT5-2 (Q86UT5 other isoform, or with tags, fused parts or gaps): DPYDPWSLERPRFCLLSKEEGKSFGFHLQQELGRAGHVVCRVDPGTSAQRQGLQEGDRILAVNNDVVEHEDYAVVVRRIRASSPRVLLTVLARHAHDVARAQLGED
Sequence of Inadl_10, Q8NI35 (Q8NI35 1673-1763): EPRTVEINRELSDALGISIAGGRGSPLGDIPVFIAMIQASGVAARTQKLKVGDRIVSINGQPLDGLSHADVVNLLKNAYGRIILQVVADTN
Sequence of GRID2IP_1, A4D2P6 (A4D2P6 1-87): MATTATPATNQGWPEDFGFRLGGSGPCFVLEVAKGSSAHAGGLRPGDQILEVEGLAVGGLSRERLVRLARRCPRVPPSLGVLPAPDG

RPLPRKVSQL [DOCK4, Q8N1I0] was tested, and the pKd [1, 28] was “below the threshold”, the pKd [2, 28] was 4.62 and the pKd [3, 28] was “below the threshold”. For the same binder, the pKd [4, 28] was “below the threshold”, the pKd [5, 28] was “below the threshold” and the pKd [6, 28] was 4.32. The pKd [7, 28] was “below the threshold”, the pKd [8, 28] was “below the threshold” and the pKd [9, 28] was 3.94. For the same binder, the pKd [10, 28] was “below the threshold”, the pKd [11, 28] was “below the threshold” and the pKd [12, 28] was “below the threshold”. The pKd [13, 28] was “below the threshold”, the pKd [14, 28] was “below the threshold” and the pKd [15, 28] was “below the threshold”. The pKd [16, 28] was “below the threshold”, the pKd [17, 28] was “below the threshold” and the pKd [18, 28] was “below the threshold”. The pKd [19, 28] was “below the threshold”, the pKd [20, 28] was “below the threshold” and the pKd [21, 28] was “below the threshold”. The pKd [22, 28] was “below the threshold”, the pKd [23, 28] was 4.6 and the pKd [24, 28] was 3.93. For the same binder, the pKd [25, 28] was 4.21, the pKd [26, 28] was 3.5 and the pKd [27, 28] was “below the threshold”.

For VDFPPKESSL [ACVR2A, P27037], the pKd [1, 28] was “below the threshold”, the pKd [2, 28] was 4.2 and the pKd [3, 28] was “below the threshold”. For the same binder, the pKd [4, 28] was “below the threshold”, the pKd [5, 28] was “below the threshold” and the pKd [6, 28] was 3.35. For the same binder, the pKd [7, 28] was “below the threshold”, the pKd [8, 28] was 3.71 and the pKd [9, 28] was 4.24. The pKd [10, 28] was “below the threshold”, the pKd [11, 28] was “below the threshold” and the pKd [12, 28] was “below the threshold”. The pKd [13, 28] was 3.84, the pKd [14, 28] was 3.97 and the pKd [15, 28] was “below the threshold”. The pKd [16, 28] was “below the threshold”, the pKd [17, 28] was “below the threshold” and the pKd [18, 28] was “below the threshold”. The pKd [19, 28] was 3.54, the pKd [20, 28] was 3.24 and the pKd [21, 28] was “below the threshold”. For the same binder, the pKd [22, 28] was “below the threshold”, the pKd [23, 28] was 3.78 and the pKd [24, 28] was 3.47. The pKd [25, 28] was 4.22, the pKd [26, 28] was 4.7 and the pKd [27, 28] was “below the threshold”.

In the case of FHPLGADSQV [SLC2A1, P11166], the pKd [1, 28] is reported as “below the threshold”, the pKd [2, 28] is reported as “below the threshold” and the pKd [3, 28] is reported as “below the threshold”. For the same binder, the pKd [4, 28] was “below the threshold”, the pKd [5, 28] was “below the threshold” and the pKd [6, 28] was “below the threshold”. For the same binder, the pKd [7, 28] was “below the threshold”, the pKd [8, 28] was “below the threshold” and the pKd [9, 28] was 3.88. The pKd [10, 28] was “below the threshold”, the pKd [11, 28] was “below the threshold” and the pKd [12, 28] was 3.5. For the same binder, the pKd [13, 28] was 3.65, the pKd [14, 28] was 4.29 and the pKd [15, 28] was “below the threshold”. The pKd [16, 28] was “below the threshold”, the pKd [17, 28] was “below the threshold” and the pKd [18, 28] was “below the threshold”. For the same binder, the pKd [19, 28] was “below the threshold”, the pKd [20, 28] was “below the threshold” and the pKd [21, 28] was “below the threshold”. The pKd [22, 28] was “below the threshold”, the pKd [23, 28] was “below the threshold” and the pKd [24, 28] was “below the threshold”. The pKd [25, 28] was “below the threshold”, the pKd [26, 28] was “below the threshold” and the pKd [27, 28] was “below the threshold”.

YGIVQETTFDLGGDIH [MLLT4_int, P55196] was tested, and the pKd [1, 29] was “below the threshold”, the pKd [2, 29] was “below the threshold” and the pKd [3, 29] was “below the threshold”. For the same binder, the pKd [4, 29] was “below the threshold”, the pKd [5, 29] was 3.98 and the pKd [6, 29] was “below the threshold”. The pKd [7, 29] was “below the threshold”, the pKd [8, 29] was “below the threshold” and the pKd [9, 29] was 4.06. For the same binder, the pKd [10, 29] was “below the threshold”, the pKd [11, 29] was 3.83 and the pKd [12, 29] was “below the threshold”. The pKd [13, 29] was “below the threshold”, the pKd [14, 29] was “below the threshold” and the pKd [15, 29] was “below the threshold”. For the same binder, the pKd [16, 29] was “below the threshold”, the pKd [17, 29] was “below the threshold” and the pKd [18, 29] was “below the threshold”. The pKd [19, 29] was 3.58, the pKd [20, 29] was “below the threshold” and the pKd [21, 29] was “below the threshold”. The pKd [22, 29] was “below the threshold”, the pKd [23, 29] was “below the threshold” and the pKd [24, 29] was “below the threshold”. The pKd [25, 29] was “below the threshold”, the pKd [26, 29] was “below the threshold” and the pKd [27, 29] was “below the threshold”.
